Experimental data from paper PMC7265326.

Molecular target: PKD2-mNeonGreen (PKD2-mNG) in cilia (Chlamydomonas)
Experiment: stepwise photobleaching

Q: With “PKD2-mNeonGreen (PKD2-mNG) in cilia (domain or fragment)” as the substance, how does the photobleaching steps per particle read?
A: 2.8 steps

Q: What about the stoichiometry N of the same substance?
A: > 3
